# According to the RNAGym collection of RNA variant scans (doi:10.7554/elife.80360):
# B1: HDV Ribozyme (parent)
# chain: GGCCGGCAUGGUCCCAGCCUCCUCGCUGGCGCCGGCUGGGCAACAUUCCGAGGGGACCGUCCCCUCGGUAAUGGCGAAUGGGACCCA
# Variants of: B1
# Assay: self-cleavage, relative activity (ratio to wild type); higher = more cleavage; co-transcriptional
row,Variant,self-cleavage
1,GGCCGUCAUGGUCCCAGCCUCCUCGCUGGCGCCGGCUGGGCAACAUUCCGAGGGCACCGUCCCCUCGGUAAUGGCGAAUGGGACCCA [G6U G55C],0.495
2,GGCCGUCAUGGUCCCAGCCUCCUCGCUGGCGCCGGCUGGGCAACAUUCCGAGGGAACCGUCCCCUCGGUAAUGGCGAAUGGGACCCA [G6U G55A],0.59
3,GGCCGUCAUGGUCCCAGCCUCCUCGCUGGCGCCGGCUGGGCAACAUUCCGAGGGUACCGUCCCCUCGGUAAUGGCGAAUGGGACCCA [G6U G55U],0.942
4,GGCCGUCAUGCUCCCAGCCUCCUCGCUGGCGCCGGCUGGGCAACAUUCCGAGGGGACCGUCCCCUCGGUAAUGGCGAAUGGGACCCA [G6U G11C],0
5,GGCCGUCAUGUUCCCAGCCUCCUCGCUGGCGCCGGCUGGGCAACAUUCCGAGGGGACCGUCCCCUCGGUAAUGGCGAAUGGGACCCA [G6U G11U],0.0361
6,GGCCGUCAUGGUCCCAGCCUCCUCGCUGGCGCCGGCUGGGCAACAUUCCGAGGGGACCGUCCCCUCGGUAAUGGCGAAUGGGAGCCA [G6U C84G],0.0923
7,GGCCGUCAUGGUCCCAGCCUCCUCGCUGGCGCCGGCUGGGCAACAUUCCGAGGGGACCGUCCCCUCGAUAAUGGCGAAUGGGACCCA [G6U G68A],0.483
8,GGCCGUCAUGGUCCCAGCCUCCUCGCUGGCGCCGGCUGGGCAACAUUCCGAGGGGACCUUCCCCUCGGUAAUGGCGAAUGGGACCCA [G6U G59U],0.69
9,GGCCGUCAUGGUCCCAGCCUCCUCGCUGGCGCCGGCUGGGCAACAUUCCGAGGGGACCAUCCCCUCGGUAAUGGCGAAUGGGACCCA [G6U G59A],0.544
10,GGCCGUCAUGGUCCCAGCCUCCUCGCUGGCGCCGGCUGGGCAACAUUCCGAGGGGACCCUCCCCUCGGUAAUGGCGAAUGGGACCCA [G6U G59C],0.475
11,GGCCGUCAUGGUCCCAGCCUCCUCGCUGGCGCCGGCUGGGCAACAUUCCGAGGGGACCGUCCCCUCGGUAAUGGCUAAUGGGACCCA [G6U G76U],0.731
12,GGCCGUCAUGGUCCCAGCCUCCUCGCUGGCGCCGGCUGGGCAACAUUCCGAGGGGACCGUCCCCUCGGUAAUGGCAAAUGGGACCCA [G6U G76A],0.708
13,GGCCGUCAUGGUCCCAGCCUCCUCGCUGGCGCCGGCUGGUCAACAUUCCGAGGGGACCGUCCCCUCGGUAAUGGCGAAUGGGACCCA [G6U G40U],0.633
14,GGCCGUCAUGGUCCCAGCCUCCUCGCUGGCGCCGGCUGGGCAACAUUCCGAGGGGACCGACCCCUCGGUAAUGGCGAAUGGGACCCA [G6U U60A],0.571
15,GGCCGUCAUGGUCCCAGCCUCCUCGCUGGCGCCGGCUGGGCAACAUUCCGAGGGGACCGGCCCCUCGGUAAUGGCGAAUGGGACCCA [G6U U60G],0.346
16,GGCCGUCAUGGUCCCAGCCUCCUCGCUGGCGCCGGCUGGGCAACAUUCCCAGGGGACCGUCCCCUCGGUAAUGGCGAAUGGGACCCA [G6U G50C],0.776
17,GGCCGUCAUGGUCCCAGCCUCCUCGCUGGCGCCGGCUGGGCAACAUUCCGAGGGGACCGUCCCCUCGGAAAUGGCGAAUGGGACCCA [G6U U69A],0.415
18,GGCCGUCAUGGUCCCAGCCUCCUCGCUGGCGCCGGCUUGGCAACAUUCCGAGGGGACCGUCCCCUCGGUAAUGGCGAAUGGGACCCA [G6U G38U],0.0308
19,GGCCGUCAUGGUCCCAGCCUCCUCGCUGGCGCCGGCUAGGCAACAUUCCGAGGGGACCGUCCCCUCGGUAAUGGCGAAUGGGACCCA [G6U G38A],0.0396
20,GGCCGUCAUGGUCCCAGCCUCCUCACUGGCGCCGGCUGGGCAACAUUCCGAGGGGACCGUCCCCUCGGUAAUGGCGAAUGGGACCCA [G6U G25A],0.169
21,GGCCGUCAUGGGCCCAGCCUCCUCGCUGGCGCCGGCUGGGCAACAUUCCGAGGGGACCGUCCCCUCGGUAAUGGCGAAUGGGACCCA [G6U U12G],0
22,GGCCGUCAUGGCCCCAGCCUCCUCGCUGGCGCCGGCUGGGCAACAUUCCGAGGGGACCGUCCCCUCGGUAAUGGCGAAUGGGACCCA [G6U U12C],0.0573

row,Variant,self-cleavage
1,GGCCGUCAUGGACCCAGCCUCCUCGCUGGCGCCGGCUGGGCAACAUUCCGAGGGGACCGUCCCCUCGGUAAUGGCGAAUGGGACCCA [G6U U12A],0
2,GGCCGUCAUGGUCCCAGCCUCCUCGCUUGCGCCGGCUGGGCAACAUUCCGAGGGGACCGUCCCCUCGGUAAUGGCGAAUGGGACCCA [G6U G28U],0.104
3,GGCCGUCAUGGUCCCAGCCUCCUCGCUGGCGCCGGCUGGGCAACAUUCCGAGGGGACCGUCCCCUCGGUAAUGCCGAAUGGGACCCA [G6U G74C],0.0449
4,GGCCGUCAUGGUCCCAGCCUCCUCGCUGGCGCCGGCUGGGCAACAUCCCGAGGGGACCGUCCCCUCGGUAAUGGCGAAUGGGACCCA [G6U U47C],0.467
5,GGCCGUCAUGGUCCCAGCCUCCUCGCUGGCGCCGGCUGGGCAACAUACCGAGGGGACCGUCCCCUCGGUAAUGGCGAAUGGGACCCA [G6U U47A],0.482
6,GGCCGUCAUGGUCCCAGCCUCCUCGCUGGCGCCGGCUGGGCAACAUUCCGAGGGGACCGUCCCCUCGGUAAUGGCGAAUGGGACGCA [G6U C85G],0.297
7,GGCCGUCAUGGUCCCAGCCUCCUCGCUGGCGCCGUCUGGGCAACAUUCCGAGGGGACCGUCCCCUCGGUAAUGGCGAAUGGGACCCA [G6U G35U],0.143
8,GGCCGUCAUGGUCCCAGCCUCCUCGCUGGCGCCGACUGGGCAACAUUCCGAGGGGACCGUCCCCUCGGUAAUGGCGAAUGGGACCCA [G6U G35A],0.208
9,GGCCGUCAUGGUCCCAGCCUCCUCGCUGGCGCCGGCUGGGCAACAUUCCGAGGGGACCGUCCCCUCGGUAAUGGCGAAUGAGACCCA [G6U G81A],0.0997
10,GGCCGUCAUGGUCCCAGCCUCCUCGCUGGCGCCGGCUGGGCAACAUUCCGAGGGGACCGUCCCCUCGGUAAUGGCGAAUGUGACCCA [G6U G81U],0.154
11,GGCCGUCAUGGUCCCAGCCUCCUCGCUGGCGCCGGCUGGGCAACAUUCCGAGGGGACCGUCCCCUCGGUAAUGGCGAAUGCGACCCA [G6U G81C],0.196
12,GGCCGUCAUGGUCCCAGCCUCCUCGCUGGCGCCGGCUGGGCAACAUUCCGAGGGGACCGUCCCCUCGGUAAUGGCGAAUGGGACCGA [G6U C86G],0.467
13,GGCCGUCAUGGUCCCAGCCUCCUCGCUGGCGCCGGCUGGGCAACAUUCCGAGGGGACCGUCCCCUCGGUAAUGGCGAAUGGGACCUA [G6U C86U],0.633
14,GGCCGUCAUGGUCCCAGCCUCCUCGCUGGCGCCGGCUGGGCAACAUUCCGAGGGGACCGUACCCUCGGUAAUGGCGAAUGGGACCCA [G6U C61A],0.717
15,GGCCGUCAUGGUCCCAGCCUCCUCGCUGGCGCCGGCUGGGCAACAUUCCGAGGUGACCGUCCCCUCGGUAAUGGCGAAUGGGACCCA [G6U G54U],0.643
16,GGCCGUCAUGGUCCCAGCCUCCUCGCUGGCGCCGGCUGGGCAACAUUCCGAGGCGACCGUCCCCUCGGUAAUGGCGAAUGGGACCCA [G6U G54C],0.383
17,GGCCGUCAUAGUCCCAGCCUCCUCGCUGGCGCCGGCUGGGCAACAUUCCGAGGGGACCGUCCCCUCGGUAAUGGCGAAUGGGACCCA [G6U G10A],0.185
18,GGCCGUCAUGGUCCCAGCCUCCUCGCUGGCGCCGGCUGGGCAACAUUCCGAGGGGACCGUCCCCUCUGUAAUGGCGAAUGGGACCCA [G6U G67U],0.62
19,GGCCGUCAUGGUCCCAGCCUCCUCGCUGGCGCCGGCUGGGCAACAUUCCGAGGGGACCGUCCCCUCAGUAAUGGCGAAUGGGACCCA [G6U G67A],0.517
20,GGCCGUCAUGGUCCCAGCCUCCUCGCUGGCGCCGGCUGGGCAACAUUCCGAGGGGACCGUCCCCUCGGUAAUGGAGAAUGGGACCCA [G6U C75A],0.0875
21,GGCCGUCAUGGUCCCAGCCUCCUCGCUGGCGCCGGCUGGGCAACAUUCCGAGGGGACCGUCCCAUCGGUAAUGGCGAAUGGGACCCA [G6U C64A],0.415
22,GGCCGUCAUGGUCCCAGCCUCCUCGCUGGCGCCGGCUGGGCAACAUUCCGAGGGGACCGUCCCUUCGGUAAUGGCGAAUGGGACCCA [G6U C64U],0.723

row,Variant,self-cleavage
1,GGCCGUCAUGGUCCCAGCCUCCUCGCUGGCGCCGGCUGGGCAACAAUCCGAGGGGACCGUCCCCUCGGUAAUGGCGAAUGGGACCCA [G6U U46A],0.0755
2,GGCCGUCAUGGUCCCAGCCUCCUCGCUGGCGCCGGCUGGGCAACAGUCCGAGGGGACCGUCCCCUCGGUAAUGGCGAAUGGGACCCA [G6U U46G],0.123
3,GGCCGUCAUGGUCCCAGCCUCCUCGCUGGCGCCGGCUGGGCAACACUCCGAGGGGACCGUCCCCUCGGUAAUGGCGAAUGGGACCCA [G6U U46C],0.133
4,GGCCGUCAUGGUCCCAGCCUCCUCGCUGGCGCCGGCUGGGCAACAUUCCGAGGGGACCGUCUCCUCGGUAAUGGCGAAUGGGACCCA [G6U C62U],1
5,GGCCGUCAUGGUCCCAGCCUCCUCGCAGGCGCCGGCUGGGCAACAUUCCGAGGGGACCGUCCCCUCGGUAAUGGCGAAUGGGACCCA [G6U U27A],0.453
6,GGCCGUCAUGGUCCCAGCCUCCUCGCUGGCGCCGGCUGGGCAACAUUCCGAGUGGACCGUCCCCUCGGUAAUGGCGAAUGGGACCCA [G6U G53U],0.643
7,GGCCGUCAUGGUCCCAGCCUCCUCGCUGGCGCCGGCUGGGCAACAUUCCGAGGGGACCGUCCCCUCGGUAAUGGCGAAUGGCACCCA [G6U G82C],0.17
8,GGCCGUCAUGGUCCCAGCCUCCUCGCUGGCGCCGGCUGCGCAACAUUCCGAGGGGACCGUCCCCUCGGUAAUGGCGAAUGGGACCCA [G6U G39C],0.151
9,GGCCGUCAUGGUCCCAGCCUCCUCGCUGGCGCCGGCUGUGCAACAUUCCGAGGGGACCGUCCCCUCGGUAAUGGCGAAUGGGACCCA [G6U G39U],0.106
10,GGCCGUCAUGGUCCCAGCCUCCUCGCUGGCGCCGGCUGGGCAACAUUCCGAGGGGACCGUCCCCGCGGUAAUGGCGAAUGGGACCCA [G6U U65G],0.453
11,GGCCGUCAUGGUCCCAGCCUCCUCGCUGGCGCCGGCUGGGCAACAUUCCGAGGGGACCGUCCGCUCGGUAAUGGCGAAUGGGACCCA [G6U C63G],0.268
12,GGCCGUCAUGGUCCCAGCCUCCUCGCUGGCGCCGGCUGGGCAACAUUCCGAGGGGACCGUCCCCUCGGUAAUGGCGAAUAGGACCCA [G6U G80A],0.104
13,GGCCGUCAUGGUCCCAGCCUCCUCGCUGGCGCCGGCUGGGCAACAUUCCGAGGGGACCGUCCCCUCGGUAAUAGCGAAUGGGACCCA [G6U G73A],0.113
14,GGCCGUCAUGGUCCCAGCCUCCUCGCUGGCGCCGGCAGGGCAACAUUCCGAGGGGACCGUCCCCUCGGUAAUGGCGAAUGGGACCCA [G6U U37A],0.0437
15,GGCCGUCACGGUCCCAGCCUCCUCGCUGGCGCCGGCUGGGCAACAUUCCGAGGGGACCGUCCCCUCGGUAAUGGCGAAUGGGACCCA [G6U U9C],0.465
16,GGCCGUCAAGGUCCCAGCCUCCUCGCUGGCGCCGGCUGGGCAACAUUCCGAGGGGACCGUCCCCUCGGUAAUGGCGAAUGGGACCCA [G6U U9A],0.623
17,GGCCGUCAUGGUCCCAGCCUCCUCGCUGGCGCCUGCUGGGCAACAUUCCGAGGGGACCGUCCCCUCGGUAAUGGCGAAUGGGACCCA [G6U G34U],0.0755
18,GGCCGUCAUGGUCCCAGCCUCCUCGCUGGCGCCAGCUGGGCAACAUUCCGAGGGGACCGUCCCCUCGGUAAUGGCGAAUGGGACCCA [G6U G34A],0.208
19,GGCCGUCAUGGUCCCAGCCUCCCCGCUGGCGCCGGCUGGGCAACAUUCCGAGGGGACCGUCCCCUCGGUAAUGGCGAAUGGGACCCA [G6U U23C],0.312
20,GGCCGUCAUGGUCCCAGCCUCCACGCUGGCGCCGGCUGGGCAACAUUCCGAGGGGACCGUCCCCUCGGUAAUGGCGAAUGGGACCCA [G6U U23A],0.466
